Laboratory results: patent publication US20210188980A1 (SHANGHAI EPIMAB BIOTHERAPEUTICS, published 2021)
Blank lines part the entries; values can stand above or below the binder they belong to.

Experiments:
[1] = target: T1, human PD-1 expressed on cells (human, UniProt Q15116 25-288); assay: cell-based or functional assay
[2] = target: T2, human LAG-3 expressed on cells (human, UniProt P18627 23-525); assay: cell-based or functional assay
T2 sequence (looked up): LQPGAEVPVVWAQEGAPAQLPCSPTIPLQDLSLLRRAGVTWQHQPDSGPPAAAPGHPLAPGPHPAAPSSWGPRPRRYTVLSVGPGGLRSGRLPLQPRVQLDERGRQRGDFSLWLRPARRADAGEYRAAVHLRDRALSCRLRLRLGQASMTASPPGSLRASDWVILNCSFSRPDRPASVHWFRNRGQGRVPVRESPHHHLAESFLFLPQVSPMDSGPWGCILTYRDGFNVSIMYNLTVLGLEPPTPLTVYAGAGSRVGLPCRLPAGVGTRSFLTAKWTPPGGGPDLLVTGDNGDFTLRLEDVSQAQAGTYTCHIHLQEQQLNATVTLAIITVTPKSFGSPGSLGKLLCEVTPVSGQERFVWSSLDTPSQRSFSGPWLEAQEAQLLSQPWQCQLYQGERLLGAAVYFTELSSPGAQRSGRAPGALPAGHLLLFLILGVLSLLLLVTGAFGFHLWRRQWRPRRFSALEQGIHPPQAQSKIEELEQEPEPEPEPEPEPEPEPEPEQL

[3] = target: T2, human LAG-3 expressed on cells; assay: flow cytometry, biotinylated antibody + FITC-streptavidin, CD3 T cells; panel 'PBMC stimulation for 72h, PD1 antibody treated group' (cells pre-treated with unlabelled HumAb713-7)
Experimental: (§1) To further evaluate the cell surface binding ability of FIT107-1-7b-1, the parental antibodies HumAb713-7, HumAb747V-67, and the bispecific FIT-Ig FIT107-1-7b-1 were biotinylated with biotin reagent (Sigma, Cat. No. S3259). For PBMC without stimulation, PBMCs were re-suspended at 5×10⁶ cells/mi. For PD-1 antibody (HumAb713-7) or LAG-3 antibody (HumAb747V-67) testing, 100 μg/ml of antibody were added and the reaction mixture allowed to incubate at 37° C. for 40 minutes separately, followed by two washes with FACS buffer. Then 100 μl, 5×10⁵ PBMC/well (untreated group, anti-PD-1 antibody treated group and anti-LAG-3 antibody treated group) were seeded into wells of 96-well plate. Biotinylated HumAb713-7, HumAb747V-67 and FIT107-1-7b-1 were added and incubated at 37° C. for 40 minutes (final working concentration starting from 100 nM with 3-fold serial dilution) followed by washing with FACS buffer twice. FITC-streptavidin and BV421-anti human-CD3 antibody were added and the assay plate incubated at 4° C. for 30 minutes, followed by washing with FACS buffer twice. The plate was analyzed with a Beckman Coulter CytoFlex flow cytometer, PBMC stimulation groups were stimulated with anti-CD3 plus anti-CD28 antibody for 72 hours, to induce PD-1 and LAG-3 expression on T cells. […]

[4] = target: T2, human LAG-3 expressed on cells; assay: flow cytometry, biotinylated antibody + FITC-streptavidin, CD3 T cells; panel 'PBMC stimulation for 72h, untreated group' (anti-CD3 plus anti-CD28)
Experimental: as §1

[5] = target: T3, recombinant human LAG-3-his protein (Novoprotein) (human, UniProt P18627 23-450); assay: BLI Octet, Ab on AHC sensor, huLAG-3-his; test group 2
T3 construct: Bought; also called huLAG-3; not shown: His tag
T3 sequence (looked up): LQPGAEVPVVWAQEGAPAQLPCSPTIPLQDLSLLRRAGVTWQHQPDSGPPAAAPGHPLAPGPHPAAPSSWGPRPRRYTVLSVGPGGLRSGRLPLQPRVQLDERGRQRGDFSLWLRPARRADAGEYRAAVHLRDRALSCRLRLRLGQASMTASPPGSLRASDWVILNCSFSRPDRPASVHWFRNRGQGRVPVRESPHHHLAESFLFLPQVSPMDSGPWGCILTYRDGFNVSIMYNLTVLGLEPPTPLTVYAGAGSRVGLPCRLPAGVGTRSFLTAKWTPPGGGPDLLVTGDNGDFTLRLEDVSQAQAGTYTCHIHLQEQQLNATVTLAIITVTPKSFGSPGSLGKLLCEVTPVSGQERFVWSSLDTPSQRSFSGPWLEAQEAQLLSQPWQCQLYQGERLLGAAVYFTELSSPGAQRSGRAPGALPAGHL

[6] = target: T1, human PD-1 expressed on cells; assay: flow cytometry, biotinylated antibody + FITC-streptavidin, CD3 T cells; panel 'PBMC stimulation for 72h, Lag3 antibody treated group' (cells pre-treated with unlabelled HumAb747V-67)
Experimental: as §1

[7] = target: T1, human PD-1 expressed on cells; assay: cell RBA FACS; competitor PD-L1/Fc
human PD-1-His protein [8] = target: T4, human PD-1-His protein (human, UniProt Q15116 25-167, limits assumed); assay: SPR Biacore
T4 construct: also called huPD-1; not shown: His tag

[9] = target: T1, human PD-1 expressed on cells; assay: cell RBA FACS; competitor PD-L2/Fc
[10] = target: T1, human PD-1 expressed on cells; assay: flow cytometry, biotinylated antibody + FITC-streptavidin, CD3 T cells; panel 'PBMC stimulation for 72h, untreated group' (anti-CD3 plus anti-CD28)
Experimental: as §1

[11] = target: T1, human PD-1 expressed on cells; assay: flow cytometry, biotinylated antibody + FITC-streptavidin, CD3 T cells; panel 'PBMC without stimulation, Lag3 antibody treated group' (cells pre-treated with unlabelled HumAb747V-67)
Experimental: as §1

[12] = target: T1, human PD-1 expressed on cells; assay: flow cytometry, biotinylated antibody + FITC-streptavidin, CD3 T cells; panel 'PBMC without stimulation, untreated group'
Experimental: as §1

Cyno PD-1-His = Cyno PD-1-His (cynomolgus, UniProt B0LAJ3 25-170); assay: BLI Octet, FIT-Ig captured, antigen analyte
[13] = target: T3, recombinant human LAG-3-his protein …; assay: BLI Octet, FIT-Ig captured, antigen analyte
Cyno LAG-3-His = Cyno LAG-3-His (cynomolgus); assay: BLI Octet, FIT-Ig captured, antigen analyte
human PD-1-His protein [14] = target: T4, human PD-1-His protein; assay: BLI Octet, FIT-Ig captured, antigen analyte
[15] = target: T2, human LAG-3 expressed on cells; assay: flow cytometry, biotinylated FIT-Ig + FITC-streptavidin, CD3 T cells; panel 'PBMC stimulation for 72h, PD1 antibody treated group'; PD-1 pre-blocked with unlabelled HumAb713-7, so the signal is laid to LAG-3
Experimental: as §1

T1 sequence (Q15116 25-288): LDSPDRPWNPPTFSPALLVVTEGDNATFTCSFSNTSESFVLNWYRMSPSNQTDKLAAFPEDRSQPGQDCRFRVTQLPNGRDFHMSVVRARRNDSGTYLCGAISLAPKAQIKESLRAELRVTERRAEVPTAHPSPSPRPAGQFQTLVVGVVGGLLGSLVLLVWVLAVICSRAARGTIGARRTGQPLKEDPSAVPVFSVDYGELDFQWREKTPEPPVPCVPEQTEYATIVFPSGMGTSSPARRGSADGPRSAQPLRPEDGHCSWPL
T4 sequence (Q15116 25-167 limits assumed): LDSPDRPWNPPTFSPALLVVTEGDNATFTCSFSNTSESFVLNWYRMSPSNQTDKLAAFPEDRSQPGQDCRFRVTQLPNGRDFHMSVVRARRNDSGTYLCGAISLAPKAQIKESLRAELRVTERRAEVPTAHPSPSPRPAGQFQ
Cyno PD-1-His, sequence (B0LAJ3 entry or part of it limits assumed): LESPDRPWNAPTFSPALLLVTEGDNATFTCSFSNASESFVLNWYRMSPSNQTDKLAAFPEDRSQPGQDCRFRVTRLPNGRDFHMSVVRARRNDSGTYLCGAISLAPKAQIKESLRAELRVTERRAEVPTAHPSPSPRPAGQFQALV

- MLR, IFN-γ production, EC50 [1]: 0.508 nM
- MLR, IFN-γ production, EC50 [2]: 0.508 nM
B1: FIT107-1-2a (bispecific antibody, human IgG1, kappa, L234A L235A)
chain 1: not shown
chain 2: EVKLVESGGGLVKPGGSLKLSCAASGFTFSFYTMSWVRQTPEKRLEWVATISGGGRDTYYPDSVKGRFTISRDNAKNTLYLHMSSLRSEDTALYYCAGQGGNYLFAYWGQGTLVTVSAASTKGPSVFPLAPSSKSTSGGTAALGCLVKDYFPEPVTVSWNSGALTSGVHTFPAVLQSSGLYSLSSVVTVPSSSLGTQTYICNVNHKPSNTKVDKKVEPKSC
chain 3: DIQMTQSPSSLSASLGERVSLNCRASQEISGYLSWLQQKSDGTIKRLIYAASTLDSGVPKRFSGSRSGSDYSLTISSLESEDFADYYCLQYASYPLTFGAGTKLELKRTVAAPSVFIFPPSDEQLKSGTASVVCLLNNFYPREAKVQWKVDNALQSGNSQESVTEQDSKDSTYSLSSTLTLSKADYEKHKVYACEVTHQGLSSPVTKSFNRGEC

- EC50 (read off the curve) [3]: 1 to 2 nM
- EC50 (read off the curve) [4]: ~1 nM
- koff [5]: 0.000319 s⁻¹
- off-rate ratio to that of mAb747c [5]: 47%
B2: HumAb747V-67 (antibody, human IgG1, V domains shown)
VH: EVQLVQSGAEVKKPGATVKLSCTASGFNIKDDYMHWVKQRPEQGLDWIGWIVPENGNTVYASKFQGKATITADTSTNTAYLELSSLRSEDTAVYYCTVYGDYWGQGTTVTVSS
VL: DIQMTQSPSSLSASVGDRVTITCRASQEISGYLSWLQQKPGGAIKRLIYAASALDSGVPSRFSGSRSGSDYTLTISSLQPEDFADYYCLQYASYPLTFGQGTKLELK
notes: engineered HumAb747-60 variant; human IgG1/kappa constant domains

- EC50 (read off the curve) [6]: ~3 nM
- IC50 [7]: 0.76 nM
- Kd (human PD-1-His protein [8]): 2.83 nM
- koff (human PD-1-His protein [8]): 0.00035 s⁻¹
- kon (human PD-1-His protein [8]): 124000 M⁻¹ s⁻¹
- IC50 [9]: 1.4 nM
- EC50 (read off the curve) [10]: ~2 nM
- EC50 (read off the curve) [11]: ~3 nM
- EC50 (read off the curve) [12]: ~3 nM
B3: HumAb713-7 (antibody, human IgG1, kappa, L234A L235A, V domains shown)
VH: EVQLVESGGGLVQPGGSLRLSCAASGFTSSDYGMHWVRQAPGKGLEWVSYISSGSYTIYYADTVKGRFTISRDNAKNSLYLQMNSLRDEDTAVYYCAKRGGSSHVNVMDYWGQGTTVTVSS
VL: DIQMTQSPSSLSASVGDRVTITCKASDHINNWLAWYQQKPGKAPKLLIYGATSLETGVPSRFSGSGSGTDYTFTISSLQPEDIATYYCQQYWSPPYTFGGGTKVEIKR
notes: humanized mAb713

- Kd (Cyno PD-1-His): 3.61 nM
- koff (Cyno PD-1-His): 0.000775 s⁻¹
- kon (Cyno PD-1-His): 215000 M⁻¹ s⁻¹
- Kd [13]: 1.22 nM
- koff [13]: 0.000243 s⁻¹
- kon [13]: 200000 M⁻¹ s⁻¹
- Kd (Cyno LAG-3-His): 0.123 nM
- koff (Cyno LAG-3-His): 6.36e-05 s⁻¹
- kon (Cyno LAG-3-His): 519000 M⁻¹ s⁻¹
- Kd (human PD-1-His protein [14]): 10.4 nM
- koff (human PD-1-His protein [14]): 0.000935 s⁻¹
- kon (human PD-1-His protein [14]): 89600 M⁻¹ s⁻¹
- EC50 (read off the curve) [15]: ~1 nM
B4: FIT107-1-7b-1 (bispecific antibody, human IgG1, kappa, L234A L235A)
chain 1: not shown
chain 2: EVQLVQSGAEVKKPGATVKLSCTASGFNIKDDYMHWVKQRPEQGLDWIGWIVPENANTVYASKFQGKATITADTSTNTAYLELSSLRSEDTAVYYCTVYGDYWGQGTTVTVSSASTKGPSVFPLAPSSKSTSGGTAALGCLVKDYFPEPVTVSWNSGALTSGVHTFPAVLQSSGLYSLSSVVTVPSSSLGTQTYICNVNHKPSNTKVDKKVEPKSC
chain 3: not shown
notes: FIT-Ig hexamer; outer Fab anti-LAG-3 (HumAb747V-67 with VH G55A), inner Fab anti-PD-1 (HumAb713-7); also called FIT107-7b-1
